Test results: patent publication US20240287172A1 (SCIRHOM, published 2024)
Substitutions are numbered along the chain they refer to.

T1: human iRhom1, endogenously expressed (human, UniProt Q96CC6 1-855)
T1 construct: also called iRhom1 on RH-30 cells
T1 sequence: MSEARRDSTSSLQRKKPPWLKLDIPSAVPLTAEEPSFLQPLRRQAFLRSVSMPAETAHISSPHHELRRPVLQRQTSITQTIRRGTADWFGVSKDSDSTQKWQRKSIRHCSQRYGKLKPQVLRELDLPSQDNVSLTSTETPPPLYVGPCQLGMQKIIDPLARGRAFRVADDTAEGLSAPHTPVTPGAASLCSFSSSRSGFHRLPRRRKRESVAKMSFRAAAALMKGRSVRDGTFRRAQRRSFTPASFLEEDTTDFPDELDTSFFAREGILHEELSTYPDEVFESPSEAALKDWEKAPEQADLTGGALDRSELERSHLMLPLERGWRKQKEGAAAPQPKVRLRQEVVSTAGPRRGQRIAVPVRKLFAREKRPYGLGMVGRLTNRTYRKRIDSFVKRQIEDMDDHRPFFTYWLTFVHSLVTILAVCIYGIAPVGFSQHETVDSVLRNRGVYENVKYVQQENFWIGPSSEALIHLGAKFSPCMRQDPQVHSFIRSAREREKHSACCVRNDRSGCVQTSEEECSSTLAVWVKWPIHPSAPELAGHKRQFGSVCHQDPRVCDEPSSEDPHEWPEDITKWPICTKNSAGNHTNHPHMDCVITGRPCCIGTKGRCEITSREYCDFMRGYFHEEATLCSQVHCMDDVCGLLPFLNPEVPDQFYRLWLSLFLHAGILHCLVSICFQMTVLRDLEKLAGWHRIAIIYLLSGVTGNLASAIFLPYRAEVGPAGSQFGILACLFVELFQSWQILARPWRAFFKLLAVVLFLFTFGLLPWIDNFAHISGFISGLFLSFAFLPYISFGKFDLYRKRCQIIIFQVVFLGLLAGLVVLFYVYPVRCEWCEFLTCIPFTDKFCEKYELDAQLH

T2: dog iRhom2 full length wild type, T7-tagged (dog, UniProt Q00M95 1-827)
T2 construct: whole, on cells; on MEF-DKO cells; also called Dog-iR2-FL-WT-T7
T2 sequence: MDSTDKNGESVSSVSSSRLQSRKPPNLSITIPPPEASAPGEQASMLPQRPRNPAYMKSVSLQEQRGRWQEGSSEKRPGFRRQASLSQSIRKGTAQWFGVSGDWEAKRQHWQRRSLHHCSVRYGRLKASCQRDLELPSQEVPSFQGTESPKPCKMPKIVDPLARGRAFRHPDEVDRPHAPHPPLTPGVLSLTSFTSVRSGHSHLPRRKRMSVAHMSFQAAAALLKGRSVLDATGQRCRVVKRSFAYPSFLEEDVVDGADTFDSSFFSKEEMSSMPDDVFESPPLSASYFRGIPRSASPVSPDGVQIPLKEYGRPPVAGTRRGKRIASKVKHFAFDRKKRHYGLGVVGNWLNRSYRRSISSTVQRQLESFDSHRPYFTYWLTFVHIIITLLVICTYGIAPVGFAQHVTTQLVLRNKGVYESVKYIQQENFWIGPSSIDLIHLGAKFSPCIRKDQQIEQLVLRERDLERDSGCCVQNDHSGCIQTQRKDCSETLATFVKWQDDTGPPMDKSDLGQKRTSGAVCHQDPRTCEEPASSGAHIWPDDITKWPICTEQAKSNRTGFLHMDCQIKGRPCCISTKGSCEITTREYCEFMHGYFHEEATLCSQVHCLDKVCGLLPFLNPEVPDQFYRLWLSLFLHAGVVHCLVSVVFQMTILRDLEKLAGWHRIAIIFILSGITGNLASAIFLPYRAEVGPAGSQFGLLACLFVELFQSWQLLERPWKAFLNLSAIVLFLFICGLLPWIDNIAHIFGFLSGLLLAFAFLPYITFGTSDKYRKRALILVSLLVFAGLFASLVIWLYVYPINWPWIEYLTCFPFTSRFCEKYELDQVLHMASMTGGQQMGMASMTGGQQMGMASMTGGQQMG

T3: human iRhom2, endogenously expressed (human, UniProt Q6PJF5 1-856)
T3 sequence: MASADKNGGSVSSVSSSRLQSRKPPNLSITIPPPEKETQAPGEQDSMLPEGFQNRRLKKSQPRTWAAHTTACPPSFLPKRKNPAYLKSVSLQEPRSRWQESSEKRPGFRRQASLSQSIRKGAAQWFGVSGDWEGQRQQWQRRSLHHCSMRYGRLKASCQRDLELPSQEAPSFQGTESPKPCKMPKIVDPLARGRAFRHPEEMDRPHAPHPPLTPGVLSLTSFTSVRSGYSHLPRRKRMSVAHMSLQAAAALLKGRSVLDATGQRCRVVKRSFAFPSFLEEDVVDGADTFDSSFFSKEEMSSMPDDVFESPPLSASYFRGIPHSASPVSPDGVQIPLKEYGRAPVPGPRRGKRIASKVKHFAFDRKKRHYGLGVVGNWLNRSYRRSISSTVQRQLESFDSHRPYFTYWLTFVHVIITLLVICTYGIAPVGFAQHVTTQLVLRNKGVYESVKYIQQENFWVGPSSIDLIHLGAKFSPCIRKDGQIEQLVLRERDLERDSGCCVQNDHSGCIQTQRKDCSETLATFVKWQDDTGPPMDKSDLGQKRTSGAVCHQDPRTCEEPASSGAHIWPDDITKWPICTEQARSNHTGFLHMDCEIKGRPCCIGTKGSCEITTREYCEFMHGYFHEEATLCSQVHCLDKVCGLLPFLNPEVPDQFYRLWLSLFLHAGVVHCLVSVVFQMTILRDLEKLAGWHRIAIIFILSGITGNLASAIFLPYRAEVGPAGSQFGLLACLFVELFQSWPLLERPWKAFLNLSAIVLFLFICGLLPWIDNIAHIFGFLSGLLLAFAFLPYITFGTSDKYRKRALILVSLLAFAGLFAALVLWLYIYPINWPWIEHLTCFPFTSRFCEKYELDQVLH

B1: chimeric antibody 16 (antibody, V domains shown)
VH: QVTLKESGPGILQPSQTLSLTCSFSGFSLSTFALGVGWIRQPSGRGLEWLAHIWWDDDKYYNPALKSRLTISKDTSKNHVFLKIANVDTADTATYYCARITTYYYGMDYWGQGTSVTVSS
VL: DIVLSQSPATLSVTPGDSVSLFCRASQSIGNHLHWYQQESHASPRLLIKYASQSISGIPSRFSGSGSGTDFTLSINSVETEDFGMYFCQQSYNWPLTFGAGTKLELK
notes: chimeric version of clone #16, made in CHO cells, detected with anti-human IgG; also called ch16; chl6 (so in the source)
B2: chimeric antibody 34 (antibody, V domains shown)
VH: QVTLKESGPGILQPSQTLSLTCSFSGFSLSTFSLGVGWIRQSSGKGLEWLAHIWWDDEKYYNPALKSRLTISKDTSKNQVFLKIANVDAADTATYYCARAYYSKSYYALDYWGQGTSVTVSS
VL: DIQMTQSPSSLSASLGERVSLTCRASQEISGYLSWLQQKPDGTIKRLIYAASTLDSGVPKRFSGSRSGSDYSLAISSLESEDFADYYCLQYANFPFTFGSGTKLEIK
B3: chimeric antibody 22 (antibody, V domains shown)
VH: QVTLKESGPGILQPSQTLSLTCSFSGFSLSTFGMGVGWIRQPSGKGLEWLAHIWWDDEKYYNSALKSRLTISKATSKNQVFLKIANVDTADTATYYCARISNYGSNYWYFNVWGTGTTVTVSS
VL: QVVLTQSPALMSASPGEKVTMTCSAGSSVSYMYWYQQKPGSSPRVLIYDTSNLASGVPARFTGSGSGTSYSLTISRMEAEDAATYYCQQWNSYPLTFGAGTKLELK
B4: chimeric antibody 42 (antibody, V domains shown)
VH: B3 VH with F24L, M34R, S63P, A74D, K83R, S101Q, N111D
VL: LIVLTQSPAIMSASPGEKVTMTCGATSRISYMFWYQQKPGSSPRVLIYDTSNLASGVPVRFSGSGSGTSYSLTISRVEAEDVATYYCQQWNSYPLTFGAGTKLELK
B5: chimeric antibody 44 (antibody, V domains shown)
VH: B3 VH with G44E, E58D, S63P, A74D, V80I, A85T, D91E, A98S, S101G, N111D
VL: B3 VL with V2I, L10V, S24T, G26S, S30Y, K38T, V45L, A59V, T62S, S92T

Target: T1, human iRhom1, endogenously expressed
Test: FACS on RH-30 cells (iRhom1-positive, not iRhom2-positive)

Binder	binding result
B1	no binding (tested: 3 µg/ml)

Target: T2, dog iRhom2 full length wild type, …
Test: FACS on MEF-DKO-iR2 Dog cells, 3 µg/ml
Experimental: In brief, immortalized MEF-DKO-EV control cells, MEF-DKO-rhesus-iR2-FL-WT-T7 cells, MEF-DKO-cyno-iR2-FL-WT-T7 cells, MEF-DKO-dog-iR2-FL-WT-T7 cells and MEF-DKO-rabbit-iR2-FL-WT-T7 cells, as well as their respective iRhom1 counterparts, were harvested with 10 mM EDTA in PBS, washed and resuspended in FACS buffer (PBS, 3% FBS, 0.05% sodium azide), and seeded in Nunc U-bottom 96-well plates (Thermo Fisher Scientific, USA) at approximately 3×10⁵ cells per well. To pellet cells and remove supernatants, the plates were centrifuged at 1,500 rpm and 4° C. for 3 minutes. For primary staining, cells were resuspended in 100 μl per well of either FACS buffer alone (controls), mouse monoclonal anti-T7 IgG (Merck Millipore, USA) at 3 μg/ml FACS buffer or the antibodies of the invention also at 3 μg/ml FACS buffer and incubated on ice for 1 hour.
Afterwards, plates were centrifuged at 1,500 rpm and 4° C. for 3 minutes and washed twice with 200 μl per well of FACS buffer. For secondary staining, cells were spun down and resuspended in 100 μl per well of PE-conjugated goat anti-mouse IgG F(ab′)2 detection fragment (Dianova, Germany) diluted 1:100 in FACS buffer. Protected from light, the cell suspensions were incubated on ice for 1 hour. […] Finally, cells were resuspended in 150 μl per well of FACS buffer and analyzed using a BD Accuri™ C6 Plus flow cytometer (Becton Dickinson, Germany).

Binder	binding result
B1	binds

Target: T3, human iRhom2, endogenously expressed
Test: cell-based or functional assay

Binder	LPS-induced TNFα release from PBMCs of rheumatoid arthritis patients, percent inhibition, 1 µg/ml, chimeric antibody [%]	PMA-induced HB-EGF release from PBMCs of rheumatoid arthritis patients, percent inhibition, 1 µg/ml, chimeric antibody [%]	PMA-induced HB-EGF release from THP-1 cells, percent inhibition, 3 µg/ml [%]	PMA-induced HB-EGF release from U-937 cells, percent inhibition [%]	PMA-induced IL-6R release from PBMCs of rheumatoid arthritis patients, percent inhibition, 1 µg/ml, chimeric antibody [%]	PMA-induced IL-6R release from U-937 cells, percent inhibition, 3 µg/ml [%]	PMA-induced TNFα release from U-937 cells, percent inhibition, 3 µg/ml [%]
B1	83.6	66	73.6	101	72.3	84.3	93.7
B2	66.6	30.6	76.1	98.1	45.6	82.8	87.4
B3	76.5	54.7	81.9	103	61.1	85.6	96.5
B4	82.1	76.1	80.8	103	73.5	91.8	96.5
B5	70.2	37.8	70.7	99.2	53.1	85.2	89.2
